Reference: patent US20260000736A1, “PURIFIED LACTOFERRIN COMPOSITIONS AND METHODS OF USE” (Lactea Therapeutics LLC, priority 2023, published 2026)

How the values were obtained:
E. coli = assay: Zone of inhibition test; type: cell-based
Method: A zone of inhibition test was performed to assess bioactivity of API-E2 Lactoferrin. A plate with E. coli was cultured with 100 µg/mL, 10 g/mL, 1 g/mL, and 0.1 g/mL API-E2 Lactoferrin added to paper circles and allowed to diffuse out.

[1] = test system: pigs with dermatome wounds; assay: Pig dermatome wound healing model; type: in vivo; settings: dermatome wounds 40×40 mm at a depth of 0.76 mm, topical treatment
Method: In a first assessment in a pig model setting, using a dermatome, six wounds were made on each pig with three on the left side and three on the right side of each pig covering a surface area of 40×40 mm at a depth of 0.76 mm. […] For each pig, the wounds on the left of the animal were treated while the wounds on the right wide were left as untreated controls. […] Standard of care was advised on by veterinarians with experience in dealing with wound management in a farm setting.

[2] = test system: Salivary bacteria (including Lactobacillus, Lactococcus, and Streptococcus mutans); assay: Salivary bacteria acid production, pH over time; type: cell-based; settings: in the presence of sucrose, entire 6 hour testing period
Method: Salivary bacteria (including Lactobacillus, Lactococcus, and Streptococcus mutans) produce acid during growth. This acidification is strongly associated with tooth decay, particularly when it results in pH below 5.5, which is a clinically relevant threshold. A slurry of these bacteria were treated with sucrose to stimulate growth, as well as varying concentrations of API-E2 lactoferrin. Upon the addition of sucrose and API-E2 lactoferrin, the pH was adjusted to 7 through a titration and the change in pH was subsequently monitored over the next 6 hours.

B1: Lactea-Lf: bovine lactoferrin purified from raw untreated milk by cation exchange chromatography and filtration according to Example 1 (protein)
chain: APRKNVRWCTISQPEWFKCRRWQWRMKKLGAPSITCVRRAFALECIRAIAEKKADAVTLDGGMVFEAGRDPYKLRPVAAEIYGTKESPQTHYYAVAVVKKGSNFQLDQLQGRKSCHTGLGRSAGWVIPMGILRPYLSWTESLEPLQGAVAKFFSASCVPCIDRQAYPNLCQLCKGEGENQCACSSREPYFGYSGAFKCLQDGAGDVAFVKETTVFENLPEKADRDQYELLCLNNSRAPVDAFKECHLAQVPSHAVVARSVDGKEDLIWKLLSKAQEKFGKNKSRSFQLFGSPPGQRDLLFKDSALGFLRIPSKVDSALYLGSRYLTTLKNLRETAEEVKARYTRVVWCAVGPEEQKKCQQWSQQSGQNVTCATASTTDDCIVLVLKGEADALNLDGGYIYTAGKCGLVPVLAENRKTSKYSSLDCVLRPTEGYLAVAVVKKANEGLTWNSLKDKKSCHTAVDRTAGWNIPMGLIVNQTGSCAFDEFFSQSCAPGRDPKSRLCALCAGDDQGLDKCVPNSKEKYYGYTGAFRCLAEDVGDVAFVKNDTVWENTNGESTADWAKNLNREDFRLLCLDGTRKPVTEAQSCHLAVAPNHAVVSRSDRAAHVKQVLLHQQALFGKNGKNCPDKFCLFKSETKNLLFNDNTECLAKLGGRPTYEEYLGTEYVTAIANLKKCSTSPLLEACAFLTR
E. coli; 10 µg/mL on paper circles
  zone of inhibition: complete inhibition
E. coli; 100 µg/mL on paper circles
  zone of inhibition: complete inhibition
E. coli; 0.1 g/mL on paper circles
  zone of inhibition: No zone of inhibition
E. coli; 1 g/mL on paper circles
  zone of inhibition: limited zone of inhibition
[1]
  wound healing: healing occurred within one day
[2]; 1 mg/mL
  pH of salivary bacteria slurry: above 5.5
[2]; 10 mg/mL
  pH of salivary bacteria slurry: above 5.5
